According to the DeepSol protein solubility set:

assay: soluble on expression in E. coli; label from the status in PepcDB or PDB records

Sequence	soluble on expression in E. coli
MGSDKIHHHHHHMKIVFMGTPEFAAAHLKEIVESGNKVAGVFSQPDRPKGRGQKVEPTPVKTVATNYGIPVFQPEKINSDEGFEKLSELSPDIIVVVAFGKLLKSGVINLPTIGCFNVHASLLPKYRGAAPIQRAIENGETKTGITIFKIDEGMDTGAIALKRELEIHPSDSFGSLYLKLAELGKKTLVHFLERVKEGRLELAPQDGIPSFAPKIQPEDLVISDLSDAAKVVNKIRAYDPQPGARVSVEGRISKVFGASLKCRNEGKGIVGEIVKIDDRGMIVSCGAENVIISLVQFPGKKPMRPKDALSGRLISEGIILGG	not soluble
MGSSHHHHHHGKTIFVIVPTNEEQVAFLEALAKQDELNFDWQNPPTEPGQPVVILIPSDMVEWFLEMLKAKGIPFTVYVEEGGSENLYFQGGGGGGRRLFLLLAWQPSFAKHLSELEPVPQRAPVEKRRRQHIPLSLQAREELSRKSNELQYHVVTQDWFGQRVDDFVTQHHPEWDYETVKRLVQQGHIYRYRKNGKKRYTRLTDRLEFDELVVVPTASFWERQLAPPSGVELQSSSTSQQQERRQKFHLSAKTREMAQEMVLFKNEHVIVINKPSGVPIMPTHDPLAMNITDLLPAWRYTNTQTPVICHNLDTETSGCVVLARSANTHRMLGRMFVKRVVPNSVYWGFAVGKPPVNFGRIRMHFEVQKGQGGDVIVARPTPTADSKVGIAEFVVNASALEFGSFISFYPLTTRRHQERIMAAHALRAPLLGDAKYGGESAFPHSLSLFWDPARKDVPLHLHHRKIQLPYKNGAGEFVCVTAPLPPHMEKTFKRLGWPVDADDPLIPG	not soluble
AHHHHHHGSALSDKLDLVNPSEIRKLFDLAAGMKDVISLGIGEPDFDTPAHIKEYAKEGLDKGLTHYGPNVGLPELREAIAEKLKKQNGIEADPNSEIMVLVGANQAFLMSLATFLKDGEEVLIPSPMFVSYAPAVILAGGKPVEVPTYEDNEFRINVDDLKKHVSEKTRALIINSPNNPTGAVLTKKDLEEIADFANEHDLMIISDEVYEHFIYDGAKHYSIAALDGMFGRTITVNGFSKTFAMTGWRLGFVVAPSWVIEKMVKFQMYNATCPVTFIQYAAAKALRDERSWKAVEEMRKEYERRRNLVWKRLNEMGLPTVEPKGAFYIFPRIKDTGLSSKEFSELMLMEAKVAVVPGSAFGRAGEGYIRISYATAYEKLEEAMNRMEKVLKEKKLI	soluble
MFTAKCAMQNIRNVAIVGSGQMGSGIAQVTASSGFNVMLADVNKKALDRAMKAISQSVTHLSKKQKGTDKEKSDFVTLTMSRIKTCNNVSTAVADADLIIEAAIENIDLKRGIFAQIEQSCKKDSILTTNTSSFLLEDVAKGLQDKTRFGGLHFFNPVPVMKLLEVIRSDDTSDETYATLIKFGTAVGKTTVACKDSPGFIVNRLLIPYFFEAARMYERGDASMTDIDEAMKLGAGHPMGPFELADYIGLDTVKFVMDGWAAKYPEVQLFEASPLVDKLVAEGKLGRKTGDGFYSYKK	not soluble
MVMLTKCLSSKDNIMSLTCMPALFLGHGSPMNVLDDNDYTRAWRRLGEALPRPQAIVVVSAHWYTRGTGVTAMERPQTLHDFGGFPQALYDTHYPAPGSPALAQRLVELLAPVPVALDKEAWGFDHGSWGVLIKMYPNADIPMVQLSVDSTKPAAWHFEVGRKLATLRDEGVMLVASGNVVHNLRTVRWHGDNIPYPWAASFNDFVKANLTWQGPVEQHPLVNYLQHEGGALSNPTPEHFLPLLYVLGAWDGKEPITIPVDGIEMGSISMLSVQVGLEHHHHHH	not soluble
MAHHHHHHMALTLSPVEAALATCVALRYFYAHALHLSAATRVAHSVGPAPHDLSDRFTANLPFEDYLQWGLESIYSDASSAEAHLCLEQLSSNLRDAIMTHANNMEFRFLDEAPSLFDTVLLTSLYLVRSRVLRMPLLSSTSNKPDSNCSVFGPGLDALNHCSTSPAAVVVVSAARRSVVVRARRRINRGEEITLDYRLTGSGRGVSRGHPSHNGSLLRGDVICMNDDWAARYLMN	not soluble
MSLTAERQERLLARVEDAFGVISVYEVDDYRFLEFGDAIEQSCVFTADPSWLEYDYTRAMLVGALCHESPESALFLGLGAGTLTQACMKFLPLEDIEAIELRPDVPRLAMDYLGLDDDPRLYVRIGDALELLPTAEKADLLFVDLYTDHGPGVGHLAWNFLENCQQHLNPGGWLVINQWATDDGRPLGAALLRGLYHRHYWELPVKEGNVILLVPADLEQSLDLDGLRARAEALAPRLGYSLDGLIREIRPATEGHHHHHH	soluble
MFFSALKSFLSRYITVWRNVWAVRDQLKPPKRTAEEQAFLPAHLELTDTPVSAAPKWAARFIMAFALLALLWSWFGKIDIVAAASGKTVSGGRSKTIQPLETAVVKAVHVRDGQHVKQGETLAELEAVGTDSDVVQSEQALQAAQLSKLRYEAVLAALESRTVPHIDMAQARSLGLSDADVQSAQVLAQHQYQAWAAQDAQLQSALRGHQAELQSAKAQEQKLVSVGAIEQQKTADYRRLRADNFISEHAFLEQQSKSVSNWNDLESTRGQMRQIQAAIAQAEQNRVLNTQNLKRDTLDALRQANEQIDQYRGQTDKAKQRQQLMTIQSPADGTVQELATYTVGGVVQAAQKMMVIAPDDDKMDVEVLVLNKDIGFVEQGQDAVVKIESFPYTRYGYLTGKVKSVSHDAVSHEQLGLVYTAVVSLDKHTLNIDGKAVNLTAGMNVTAEIKTGKRRVLDYLLSPLQTKLDESFRER	not soluble
MQALTTYKCIEKGIVVWLTGLPGSGKTTIATRLADLLQKEGYRVEVLDGDWARTTVSEGAGFTREERLRHLKRIAWIARLLARNGVIVICSFVSPYKQARNMVRRIVEEEGIPFLEIYVKASLEEVIRRDPKGLYKKALKGELENFTGITDPYEPPENPQLVLDTESNTIEHNVSYLYSLVKAVIE	soluble
MSSNPSSVEKKLLHYTGKAIADFNMIQRGDRVMVCLSGGKDSFTLLTILNQLRIKSGNKFEIFAFTLDQAQPGWNDACLRQWLAEKSIPHEILTRDTYSIVKEKIPEGKTYCSLCSRLRRGIIYRYAEENGFNKIALGHHRDDLVRTLMMSILYNGDIRSMPPKLLSDNKKHIVIRPLCYVQEKDIITFASEQAFPIIPCNLCGSQENLMRKKVASLIDQLAIENPKVPSNMLHALQSLKPSQLMDQNFWNFKNLEDGLETTQSIQCEEVFNAQEFELEDEKI	not soluble
GPGSRGIDGRQVVRREIKWANMAADWNKTNTKMHAKLKERCRKGIPSRFRGVAWQLLMGSFHQLNSEENNGVYVALRDKKLADKETDVIISRDLARTFPTHVLFQDPGGVGQTFLRNILHAYAGCDPEVGYVQGMGFLVAALSTQMAEGGVLLGPA	not soluble
MAHHHHHHMRVLSGVELEAVNRVVEHLRCHPEDLHRNEFRELREYMASLGASIPPPPDTPDVSGVRKEANSDDEEEYVSEPDSQRCALEPVSDDDITAYDGTDPTPEDEERAMGLKAQAAELAADGDFDKAIELMGQALRIVPGKAMYWAQRASYFLKCTQPGAALQDANRALDLNPENVRALRVRGTVNRRLGKWEEALKDLSEAQAVDYDEGIDEILRFVQKRTNDRRQFQQRKKEAQRLRQEALRRQREHELREEEMKREQQQQRDQQQSGAGDFPGGAGGFPGGFPGGAGGGGMQSFMESLFQDQELAEAMKDPEVAAKLATLRSNPMAALQMMGDPKVGPLIQKMMSKAMGGSSPGSSPFGAGASAGATSHADAHHSDELD	soluble
MGSDKIHHHHHHMREKIKLELERIEKENDVKILFAVESGSRVWGFPSKDSDYDVRFVYMHPVEWYLSIHDKRDVIEYPISDDLDISGWDIKKALQLFAKSNPALLEWIRSPIFYSKNSNFPEQLQQMSEKNFDPKATIYHYLHMASKNYREFLQGENVKLKKYFYVLRPILACKWLEEKTTLPPVEFDRLITELSIERSVLDEIEQLLIKKKAGTELDVGLKIEVLNQFLEEQIHYYQQYVKGIEKGSGIDIESLNTLFRDMLFAVYEKEHK	not soluble
MAHHHHHHSLKEAEVLKYEAFTSSPGKGNPAGVVLQGDDYTEDEMQIIAERAGYSETSFIRKSESADLELRYFTPGHEMNLCGHATVASLYALCEKGMLESGKTYSIQTKAGILPVKISEKDGRIHITLEQASPQFKPFTGDRKKLADALGITDEDFHEDLPIVFGSTGIWTAIVPLKSLEASKKMVPDNKQFPEVLVDLPKASVHPFTFETVHPDSDLHGRHFSSPYSGTIEDPVTGTASGVMGAYMKHYGNAEQHKFIIEQGQEIGKDGKVEIEMNEAGGHVKVNMTGTAVYSETRILKIEG	not soluble
MKRMIVRMTLPLLIVCLAFSSFSASARAASEEKYWDHWIERHAQPLDASNASNKDLRFLKKVLKGKRIVQLGETTHGAGEINATKVRMIKYLHEELGYDVLAFESGFPDTNASYLNMDQLTPKSTMKNSIYAVWHTEDVVELFDYMKEQKEKGDPLILTGFDIQSMKNSFNVAATQWVKAVDPEKAELLSQSENDFSTLVTDSNTFDEFSQKKEKLVKNYQKLIKFTKTHASELKENLPKEPKAYEMFMHSLQLRIDVMETYMLEEMKEKLEEYPENIEDFSFFMRDRMMAEQFQWVADTLYPKKKIIVWGHNYHLRKQNTKMIKDWVQLNGPNMGDYLPERLKKQTYTIGIYAYSGASLDSSDNKTVKPVTSPPPSGSLEALLKAADRPAVFVDFLHTKNKKGTSWMYTPRTALYWGYMEEQMILKEQYDGVIWLEHITPSVIIKLEHHHHHH	not soluble
MGSDKIHHHHHHMYRAVIFDFDGTIIDTEQHLFNVINKHLEMHNADPISIDFYRSSIGGAATDLHDHLIKAIGSENKDKLYEEHHLTSTTLPMIDTIKSLMAFLKQRHIPMAIATSSVKAEIMPTFKALGLDDYIEVVVGREDVEQVKPDPELYLSAVQQLNYMPTQCLAIEDSVNGATAAIAAGLDVIVNTNKMTSAQDFSNVDYVAKDIDYDQIVARFFTK	not soluble
KERERLEEKLEDANERIAELVKLEERQRIARDLHDTLGQKLSLIGLKSDLARKLIYKDPEQAARELKSVQQTARTSLNEVRKIVSSMKGIRLKDELINIKQILEAADIMFIYEEEKWPENISLLNENILSMCLKEAVTNVVKHSQAKTCRVDIQQLWKEVVITVSDDGTFKGEENSFSKGHGLLGMRERLEFANGSLHIDTENGTKLTMAIPNNSK	not soluble
GPLGSPEFPGMSKVFIATANAGKAHDADIFSVSACNSFTVSCSGDGYLKVWDNKLLDNENPKDKSYSHFVHKSGLHHVDVLQAIERDAFELCLVATTSFSGDLLFYRITREDETKKVIFEKLDLLDSDMKKHSFWALKWGASNDRLLSHRLVATDVKGTTYIWKFHPFADESNSLTLNWSPTLELQGTVESPMTPSQFATSVDISERGLIATGFNNGTVQISELSTLRPLYNFESQHSMINNSNSIRSVKFSPQGSLLAIAHDSNSFGCITLYETEFGERIGSLSVPTHSSQASLGEFAHSSWVMSLSFNDSGETLCSAGWDGKLRFWDVKTKERITTLNMHCDDIEIEEDILAVDEHGDSLAEPGVFDVKFLKKGWRSGMGADLNESLCCVCLDRSIRWFREAGGK	soluble
QWGAPEAQKMARDLRSFALSGGSIVSVRAGVWARDANDFIFIGKVEDDKLYALNMWRFDDDKNLEKVIFAEEVDYQQDNNWLMRDVQITNMQDENVISKQEMDQMEWHTSLAPDKLAVVTVKPEELSLSGLYDYVTYLKASEQDASRYELAFWRKLTQP	not soluble
MEDVFKGIEKEIIKIYKIPERKGRFSNFKFKNKEINELIDALGFKLYLHQVKALKYLYNKKDVVVTTSTASGKSEIFRLAIFDNFLSNPDDRYLLIYPTRALINNQYEKFSMENELFYKITNKRVKAEILTGDVGLEKRREILKDKPNVLFTTPDMLHYQILKNHNNYLWLLKNLKLLVVDELHVYRGVFGTNMVYVFKRLLKLLKRLNNNLQILCLSATLKNPKEFVKLLFNRDFEVVD	not soluble
